Results on 1 protein are retold here after patent US5616559, “Papillomavirus E2 trans-activation repressors” (Biogen, Inc., dated 1997).

This series deals with the molecule itself. Description: homodimerization; UV cross-linking, yeast extract.

B1: BPV1 E2 mutant 360S, full-length form (other)
chain: METACERLHVAQETQMQLIEKSSDKLQDHILYWTAVRTENTLLYAARKKGVTVLGHCRVPHSVVCQERAKQAIEMQLSLQELSKTEFGDEPWSLLDTSWDRYMSEPKRCFKKGARVVEVEFDGNASNTNWYTVYSNLYMRTEDGWQLAKAGADGTGLYYCTMAGAGRIYYSRFGDEAARFSTTGHYSVRDQDRVYAGVSSTSSDFRDRPDGVWVASEGPEGDPAGKEAEPAQPVSSLLGSPACGPIRAGLGWVRDGPRSHPYNFPAGSGGSILRSSSTPVQGTVPVDLASRQEEEEQSPDSTEEEPVTLPRRTTNDGFHLLKAGGSCFALISGTANQVKCYRFRVKKNHRHRYENCTTTSFTVADNGAERQGQAQILITFGSPSQRQDFLKHVPLPPGMNISGFTASLDF
B1: the binding result is listed as “no binding”.
